# Experimental data taken from the supplement of paper PMC10724198.
# ± gives the standard deviation of the averaged measurements.
# System: Saccharomyces cerevisiae
# Experiment: protein stability index of tFT-peptide fusion (C-terminal peptide) (PSI (0-1 scale)); higher = more stable (slower turnover)
# Details: genetic background: wild type; temperature: 30 C
# 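Further: PSI is a weighted mean of sequencing reads over stability bins, variants kept only with over 10 reads, mCherry proximal and sfGFP distal, peptide attached via GGGS linker.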
row,Sequence,protein stability index
1,VLLSSPSLLFFE,0.703 ± 0.039
2,ALRRKPRPRYPP,0.621 ± 0.051
3,PGVGRLGRTPVS,0.6959 ± 0.0054
4,CQSARCLPFLLY,0.585 ± 0.026
5,VLLAAFLLPGLR,0.634 ± 0.033
6,ITWFRKVGAYGA,0.644 ± 0.069
7,PHPTPGTPEPRD,0.744 ± 0.17
8,KKKNQGKKKIKK,0.699 ± 0.085
9,LVSSSPLPFSPI,0.646 ± 0.079
10,AAEKSPQQADAD,0.709 ± 0.013
11,LLSGPPVPPSWS,0.653 ± 0.19
12,SPAPPLSRPPPH,0.695 ± 0.0081
13,WCGNGFVKKGGL,0.655 ± 0.007
14,LNDEKIKGKTTK,0.732 ± 0.012
15,HIEGRKHKDVAM,0.668 ± 0.062
16,GRGAGQAGKKKI,0.631 ± 0.0073
17,FPPRLPPSPPLP,0.666 ± 0.036
18,PSSSLAPPPGRL,0.572 ± 0.038
19,RAVKLHIIIFDG,0.551 ± 0.025
20,LYTISAGEDELN,0.699 ± 0.018
21,VGVVGGRWCGRG,0.648 ± 0.0099
22,CVARRPSLIGRN,0.655 ± 0.027
23,LGNFSLSARSYM,0.727 ± 0.028
24,PPSPSPPPYHFP,0.676 ± 0.023
25,KRRTGKEGRIRR,0.723 ± 0.021

row,Sequence,protein stability index
1,HMRPSTRLMPAG,0.593 ± 0.01
2,LSVPPFSFTLSL,0.807 ± 0.25
3,ASVWSLPSIVLT,0.519 ± 0.074
4,RAWELPRLRGRD,0.743 ± 0.076
5,LGFVRLLFPSFS,0.758 ± 0.022
6,VNAGAPGVLAWV,0.739 ± 0.021
7,LLSPLFCYSSRS,0.6457 ± 0.0013
8,VSCLFFFVSIPF,0.5176 ± 0.0035
9,KKTERRNKKKIR,0.695 ± 0.031
10,PLLRRLFPLSSR,0.608 ± 0.052
11,WLLKGTVTLMMW,0.5687 ± 0.0031
12,LSLSTTLSADLY,0.678 ± 0.021
13,PPPTHPTSTSSI,0.699 ± 0.02
14,LPPPRSLPPILS,0.656 ± 0.017
15,AGAEHRERVGQS,0.896 ± 0.056
16,NSFTYWYGGCIL,0.802 ± 0.28
17,KNKENLNINNKR,0.747 ± 0.0078
18,PPPTPRPAFLPP,0.6969 ± 0.0037
19,VGVIREGKENGN,0.656 ± 0.023
20,ASNSSGHTTRAS,0.6727 ± 0.003
21,NIKKNQRKEASK,0.698 ± 0.039
22,GWGGGSMDLRDR,0.702 ± 0.011
23,EGDKGGGEQKRQ,0.688 ± 0.031
24,APPPREAATSIA,0.699 ± 0.036
25,RLLFLPPPPPPP,0.654 ± 0.082

row,Sequence,protein stability index
1,HRPPPPPSPSHL,0.686 ± 0.01
2,LRHGLASYDHCG,0.681 ± 0.02
3,IFRSCCLLGLCL,0.591 ± 0.099
4,SSRTPPRFYSLP,0.708 ± 0.0074
5,VHDPLLPIFLIR,0.684 ± 0.042
6,SPYLRISGLVFC,0.557 ± 0.045
7,NRGGRKAINENG,0.685 ± 0.036
8,RCKCGDALTVIH,0.691 ± 0.016
9,FRPLVDVKFPRY,0.658 ± 0.13
10,PSSPPAPLAPHS,0.731 ± 0.067
11,PRVTPRFSKHAL,0.724 ± 0.016
12,PPPHASLSHCHS,0.687 ± 0.11
13,PPPPPPPPLPAP,0.664 ± 0.018
14,VGGVGGLWVGAV,0.7143 ± 0.0018
15,SLLPPPPPPAPS,0.627 ± 0.011
16,SFASLSFDTASF,0.675 ± 0.0086
17,IARSVLRIGVWG,0.612 ± 0.045
18,WFRMTFLSPLHD,0.797 ± 0.044
19,PPPHGPPPPPLP,0.648 ± 0.055
20,VSRGGWLKWDEG,0.66 ± 0.028
21,SERERYKKNEKV,0.643 ± 0.0017
22,ELNGLSLVRKKK,0.662 ± 0.021
23,LGGGGGGGACGE,0.655 ± 0.022
24,SEKRIGAGKDSE,0.688 ± 0.011
25,CLVGWAVAVLGD,0.458 ± 0.068

row,Sequence,protein stability index
1,CRKLSIPLRGQS,0.6627 ± 0.0044
2,RHILPNKCRLHH,0.714 ± 0.2
3,PLVPPPADPLCV,0.63 ± 0.0071
4,RPPSPILPSSSP,0.714 ± 0.077
5,PPPPPHVHPPSP,0.689 ± 0.042
6,NESSYGNEKNLG,0.723 ± 0.021
7,LRPLSFPTHTLL,0.685 ± 0.021
8,RSGWRLLHLTTL,0.613 ± 0.013
9,DRPYTEILEFRL,0.834 ± 0.14
10,STLCVRLITSAR,0.649 ± 0.077
11,EQNKQPEKETYN,0.625 ± 0.076
12,SGGGELGATSGG,0.691 ± 0.031
13,ECPLPPCPPLST,0.68 ± 0.0098
14,LSPRTMYHAYPV,0.712 ± 0.067
15,VGGWGWLPLPWC,0.678 ± 0.13
16,VPRLARTRPKHA,0.641 ± 0.042
17,AVPSLYLLPFSF,0.69 ± 0.037
18,RARVGGRQLRRV,0.753 ± 0.15
19,SSPRQITTLTRL,0.757 ± 0.037
20,REHLSERVPSRA,0.749 ± 0.057
21,GGGERLDDIVGG,0.801 ± 0.081
22,CLPLFISPFLLG,0.677 ± 0.0068
23,FDAWSLASASLV,0.741 ± 0.036
24,EATIVGLSYRTL,0.617 ± 0.032
25,GRLFCAALPLPL,0.666 ± 0.089
